Measured values published in article PMC6114919.
Each block holds one substance with its values, some of them ahead of it.

How the values were obtained:
R182W p55 (human) = assay: EMSA; conditions: EMSA in triplicate as previously described (ref 22); buffer, salt, pH and temperature not given in the material
[1] = tested on: WT p55 (Pol gamma accessory subunit) (human); assay: EMSA; conditions: EMSA in triplicate as previously described (ref 22); buffer, salt, pH and temperature not given in the material
[2] = target: Exonuclease-deficient (Exo-) p140 catalytic subunit of DNA polymerase gamma (POLG) (human) (UniProt P54098); assay: DNA polymerase activity titration (formation of active holoenzyme); holoenzymes preassembled on ice in EDB (50 mM Tris-HCl pH 7.5, 10% glycerol, 1 mM EDTA, 1 mM 2-ME, 100 mM KCl, 0.005% NP-40) with constant 2.5 nM p140 and 0-25 nM p55; activity on poly(rA)•oligo(dT)12-18 at 220 mM NaCl, 37°C, 9 min; apparent Kd from activity against the concentration of p55 dimer
p55 (Homo sapiens) = p55 (Homo sapiens) (UniProt Q9UHN1); conditions: cited from earlier work

p55, sequence (Q9UHN1 2-485): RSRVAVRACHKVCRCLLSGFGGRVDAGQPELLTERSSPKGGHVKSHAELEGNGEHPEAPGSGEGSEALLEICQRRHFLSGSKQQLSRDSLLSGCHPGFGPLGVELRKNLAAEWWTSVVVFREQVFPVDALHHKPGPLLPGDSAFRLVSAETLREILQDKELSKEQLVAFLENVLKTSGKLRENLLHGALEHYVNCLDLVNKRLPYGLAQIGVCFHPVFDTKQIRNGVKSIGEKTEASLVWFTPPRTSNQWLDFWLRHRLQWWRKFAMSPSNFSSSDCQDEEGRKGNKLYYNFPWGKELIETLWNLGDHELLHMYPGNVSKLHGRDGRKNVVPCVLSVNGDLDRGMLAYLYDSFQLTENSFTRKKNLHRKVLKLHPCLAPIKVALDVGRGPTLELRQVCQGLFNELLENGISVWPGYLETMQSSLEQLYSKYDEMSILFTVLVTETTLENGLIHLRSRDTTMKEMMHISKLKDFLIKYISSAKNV

Substance: 47-nucleotide double-stranded DNA oligomer
- Kd (R182W p55 (human)): 84.2 nM
- Kd [1]: 89.6 nM

- Kd [2]: 0.11 nM
Substance: R182W p55 accessory subunit of DNA polymerase gamma (POLG2 Chr17: 62492543G>A) (natural protein)

- Kd [2]: 0.35 nM
Substance: Wild-type p55 accessory subunit of DNA polymerase gamma (POLG2) (natural protein)

Substance: p55 (from UniProt Q9UHN1)
- Kd (p55 (Homo sapiens)): < 0.1 nM
